Measured values as given in patent publication US20120231024A1 (UNIVERSIT TSKLINIKUM FREIBURG, published 2012).

Biological target: T1, prostate specific membrane antigen (PSMA), native, on the cell surface (human, UniProt Q04609 1-750)
T1 construct: whole, on cells; also called cell-surface PSMA; native PSMA
Experiment: flow cytometry saturation curve on LNCaP cells; concentration at 50% saturation of PSMA sites
Description: The binding properties of the isolated monoclonal antibodies or an antigen binding portion thereof to the native PSMA were compared by treating LNCAP cells with increasing concentrations of the first step anti-PSMA Ab followed by incubation with the second step PE-labeled antibody. From the resulting saturation curves the antibody concentration reaching 50% saturation of PSMA sites can be read.

T1 sequence (Q04609 whole entry): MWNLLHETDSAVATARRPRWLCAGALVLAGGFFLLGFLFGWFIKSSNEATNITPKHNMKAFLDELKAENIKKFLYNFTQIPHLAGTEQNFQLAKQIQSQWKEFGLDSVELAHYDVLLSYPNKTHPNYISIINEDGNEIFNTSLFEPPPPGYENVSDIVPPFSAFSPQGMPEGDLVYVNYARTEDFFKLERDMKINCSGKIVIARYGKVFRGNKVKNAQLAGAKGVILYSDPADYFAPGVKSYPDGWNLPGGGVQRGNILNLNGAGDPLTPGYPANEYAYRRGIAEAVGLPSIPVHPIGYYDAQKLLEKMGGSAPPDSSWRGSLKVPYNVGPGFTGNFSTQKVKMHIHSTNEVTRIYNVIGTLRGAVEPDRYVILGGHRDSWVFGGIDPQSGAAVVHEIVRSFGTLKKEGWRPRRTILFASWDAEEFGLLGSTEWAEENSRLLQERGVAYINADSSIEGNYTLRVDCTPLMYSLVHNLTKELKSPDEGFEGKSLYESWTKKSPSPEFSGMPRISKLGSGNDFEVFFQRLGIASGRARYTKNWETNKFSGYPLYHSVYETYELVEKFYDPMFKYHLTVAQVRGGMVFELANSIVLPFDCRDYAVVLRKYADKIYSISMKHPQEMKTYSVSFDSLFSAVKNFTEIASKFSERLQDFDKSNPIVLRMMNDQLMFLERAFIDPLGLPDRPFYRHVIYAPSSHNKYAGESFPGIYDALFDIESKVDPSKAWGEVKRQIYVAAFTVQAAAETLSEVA

B1: scFv A5 (scFv)
scFv: MADVKLVESGGGLVKPGESLKLSCIASGFTFSDYYMYWVRQTPEKRLEWVAIISDGGYYTYYSDIIKGRFTISRDNAKNNLYLQMSSLKSEDTAMYYCTRGFPLLRHGAMDYWGLGTSVTVSSTKTTPKLEEGEFSEARVDIQMTQSPKFMSTSVGDRVSVTCKASQNVDTNVAWYQQKPGQSPKALIYSASYRYSDVPDRFTGSESGTDFTLTISNVQSEDLAEYFCQQYDSYPYTFGGGTKLEIKRADAAA
notes: also called scFv AS [sic]
- EC50: 60 nM
